The supplement of paper PMC10567573

B1: TFE3 (parent)
chain: FHLGLEDILMEEEEGVVGGLSGGA
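Also: lentivirally expressed fusions sorted by FACS into six bins by GFP to DsRed ratio, PSI derived from sequencing read proportions per bin multiplied by bin number.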

Variants of: B1
Assay: protein stability index of a GFP-peptide fusion (GPS, HEK-293T) (PSI 1-6); higher = more stable
Settings: c terminus: a fixed tail appended
For FHLGLEDILMEEEEGVVEGLSGGA [G18E], the protein stability index was 4.1.
Work on FHLGLEDILMEEEEGVVCGLSGGA [G18C] yielded a protein stability index of 3.76.
Variant FHLGLEDILMEEEEGVVHGLSGGA [G18H] has a protein stability index of 3.66.
Work on FHLGLEDILMEEEEGVVYGLSGGA [G18Y] yielded a protein stability index of 3.23.
Work on FHLGLEDILMEEEEGVVTGLSGGA [G18T] yielded a protein stability index of 3.5.
Work on FHLGLEDILMEEEEGVVSGLSGGA [G18S] yielded a protein stability index of 3.27.
In the case of FHLGLEDILMEEEEGVVLGLSGGA [G18L], the protein stability index is reported as 3.3.
Variant FHLGLEDILMEEEEGVVWGLSGGA [G18W] has a protein stability index of 3.06.
FHLGLEDILMEEEEGVVFGLSGGA [G18F] showed a protein stability index of 2.77.
Variant FHLGLEDILMEEEEGVVPGLSGGA [G18P] has a protein stability index of 3.85.
FHLGLEDILMEEEEGVVMGLSGGA [G18M] gave a protein stability index of 3.6.
FHLGLEDILMEEEEGVVAGLSGGA [G18A] showed a protein stability index of 3.64.
Variant FHLGLEDILMEEEEGVVRGLSGGA [G18R] has a protein stability index of 3.72.
FHLGLEDILMEEEEGVVDGLSGGA [G18D] gave a protein stability index of 4.06.
With FHLGLEDILMEEEEGVVIGLSGGA [G18I] the protein stability index was 3.35.
In the case of FHLGLEDILMEEEEGVVQGLSGGA [G18Q], the protein stability index is reported as 4.23.
FHLGLEDILMEEEEGVVKGLSGGA [G18K] gave a protein stability index of 2.99.
For FHLGLEDILMEEEEGVVNGLSGGA [G18N], the protein stability index was 3.77.
FHLGLEDILMEEEEGVVVGLSGGA [G18V] gave a protein stability index of 3.93.
With FHLGLEDILMEEEWGVVGGLSGGA [E14W] the protein stability index was 1.43.
In the case of FHLGLEDILMEEETGVVGGLSGGA [E14T], the protein stability index is reported as 3.25.
FHLGLEDILMEEEYGVVGGLSGGA [E14Y] gave a protein stability index of 2.39.
For FHLGLEDILMEEEVGVVGGLSGGA [E14V], the protein stability index was 2.53.
Variant FHLGLEDILMEEESGVVGGLSGGA [E14S] has a protein stability index of 2.83.
FHLGLEDILMEEEEDVVGGLSGGA [G15D] showed a protein stability index of 4.19.
In the case of FHLGLEDILMEEEEWVVGGLSGGA [G15W], the protein stability index is reported as 2.3.
FHLGLEDILMEEEEEVVGGLSGGA [G15E] showed a protein stability index of 4.39.
In the case of FHLGLEDILMEEEEQVVGGLSGGA [G15Q], the protein stability index is reported as 4.23.
For FHLGLEDILMEEEEIVVGGLSGGA [G15I], the protein stability index was 2.9.
In the case of FHLGLEDILMEEEERVVGGLSGGA [G15R], the protein stability index is reported as 4.03.
Work on FHLGLEDILMEEEEYVVGGLSGGA [G15Y] yielded a protein stability index of 3.04.
FHLGLEDILMEEEEHVVGGLSGGA [G15H] showed a protein stability index of 3.25.
Work on FHLGLEDILMEEEEKVVGGLSGGA [G15K] yielded a protein stability index of 4.11.
Variant FHLGLEDILMEEEEPVVGGLSGGA [G15P] has a protein stability index of 3.59.
In the case of FHLGLEDILMEEEELVVGGLSGGA [G15L], the protein stability index is reported as 3.1.
FHLGLEDILMEEEENVVGGLSGGA [G15N] gave a protein stability index of 3.84.
FHLGLEDILMEEEETVVGGLSGGA [G15T] showed a protein stability index of 3.51.
With FHLGLEDILMEEEEMVVGGLSGGA [G15M] the protein stability index was 3.05.
Work on FHLGLEDILMEEEEFVVGGLSGGA [G15F] yielded a protein stability index of 2.42.
Work on FHLGLEDILMEEEEVVVGGLSGGA [G15V] yielded a protein stability index of 3.64.
With FHLGLEDILMEEEEAVVGGLSGGA [G15A] the protein stability index was 4.1.
Work on FHLGLEDILMEEEECVVGGLSGGA [G15C] yielded a protein stability index of 3.24.
In the case of FHLGLEDILMEEEESVVGGLSGGA [G15S], the protein stability index is reported as 3.92.
With FHLGLEDILMEEEEGVGGGLSGGA [V17G] the protein stability index was 3.15.
In the case of FHLGLEDILMEEEEGVDGGLSGGA [V17D], the protein stability index is reported as 4.44.
Work on FHLGLEDILMEEEEGVNGGLSGGA [V17N] yielded a protein stability index of 4.76.
Work on FHLGLEDILMEEEEGVCGGLSGGA [V17C] yielded a protein stability index of 4.01.
For FHLGLEDILMEEEEGVEGGLSGGA [V17E], the protein stability index was 3.64.
Variant FHLGLEDILMEEEEGVYGGLSGGA [V17Y] has a protein stability index of 3.03.
In the case of FHLGLEDILMEEEEGVTGGLSGGA [V17T], the protein stability index is reported as 3.95.
Work on FHLGLEDILMEEEEGVRGGLSGGA [V17R] yielded a protein stability index of 3.8.
In the case of FHLGLEDILMEEEEGVIGGLSGGA [V17I], the protein stability index is reported as 3.92.
With FHLGLEDILMEEEEGVMGGLSGGA [V17M] the protein stability index was 3.46.
For FHLGLEDILMEEEEGVSGGLSGGA [V17S], the protein stability index was 4.13.
For FHLGLEDILMEEEEGVPGGLSGGA [V17P], the protein stability index was 3.63.
FHLGLEDILMEEEEGVLGGLSGGA [V17L] gave a protein stability index of 3.61.
With FHLGLEDILMEEEEGVQGGLSGGA [V17Q] the protein stability index was 3.69.
For FHLGLEDILMEEEEGVHGGLSGGA [V17H], the protein stability index was 3.7.
For FHLGLEDILMEEEEGVKGGLSGGA [V17K], the protein stability index was 3.77.
With FHLGLEDILMEEEEGVFGGLSGGA [V17F] the protein stability index was 2.88.
FHLGLEDILMEEEEGVAGGLSGGA [V17A] showed a protein stability index of 3.54.
In the case of FHLGLEDILMEEEEGVWGGLSGGA [V17W], the protein stability index is reported as 2.72.
In the case of FHLGLEDILMEEEEGVVGNLSGGA [G19N], the protein stability index is reported as 3.84.
Variant FHLGLEDILMEEEEGVVGHLSGGA [G19H] has a protein stability index of 3.47.
For FHLGLEDILMEEEEGVVGCLSGGA [G19C], the protein stability index was 3.43.
With FHLGLEDILMEEEEGVVGFLSGGA [G19F] the protein stability index was 2.69.
Variant FHLGLEDILMEEEEGVVGPLSGGA [G19P] has a protein stability index of 3.52.
FHLGLEDILMEEEEGVVGRLSGGA [G19R] showed a protein stability index of 3.54.
FHLGLEDILMEEEEGVVGILSGGA [G19I] showed a protein stability index of 2.87.
For FHLGLEDILMEEEEGVVGLLSGGA [G19L], the protein stability index was 3.25.
With FHLGLEDILMEEEEGVVGALSGGA [G19A] the protein stability index was 3.97.
Work on FHLGLEDILMEEEEGVVGMLSGGA [G19M] yielded a protein stability index of 3.71.
For FHLGLEDILMEEEEGVVGQLSGGA [G19Q], the protein stability index was 4.09.
Work on FHLGLEDILMEEEEGVVGKLSGGA [G19K] yielded a protein stability index of 3.34.
For FHLGLEDILMEEEEGVVGDLSGGA [G19D], the protein stability index was 4.69.
For FHLGLEDILMEEEEGVVGELSGGA [G19E], the protein stability index was 4.32.
FHLGLEDILMEEEEGFVGGLSGGA [V16F] gave a protein stability index of 2.83.
In the case of FHLGLEDILMEEEEGNVGGLSGGA [V16N], the protein stability index is reported as 3.68.
In the case of FHLGLEDILMEEEEGPVGGLSGGA [V16P], the protein stability index is reported as 3.08.
In the case of FHLGLEDILMEEEEGAVGGLSGGA [V16A], the protein stability index is reported as 3.87.
FHLGLEDILMEEEEGYVGGLSGGA [V16Y] showed a protein stability index of 3.34.
FHLGLEDILMEEEEGRVGGLSGGA [V16R] showed a protein stability index of 3.52.
In the case of FHLGLEDILMEEEEGWVGGLSGGA [V16W], the protein stability index is reported as 3.33.
FHLGLEDILMEEEEGCVGGLSGGA [V16C] gave a protein stability index of 4.07.
For FHLGLEDILMEEEEGSVGGLSGGA [V16S], the protein stability index was 3.82.
For FHLGLEDILMEEEEGIVGGLSGGA [V16I], the protein stability index was 4.12.
FHLGLEDILMEEEEGDVGGLSGGA [V16D] showed a protein stability index of 4.07.
FHLGLEDILMEEEEGTVGGLSGGA [V16T] gave a protein stability index of 4.
Variant FHLGLEDILMEEEEGHVGGLSGGA [V16H] has a protein stability index of 3.76.
FHLGLEDILMEEEEGQVGGLSGGA [V16Q] gave a protein stability index of 4.29.
Work on FHLGLEDILMEEEEGLVGGLSGGA [V16L] yielded a protein stability index of 2.77.
Work on FHLGLEDILMEEEEGEVGGLSGGA [V16E] yielded a protein stability index of 4.3.
For FHLGLEDILMEEEEGGVGGLSGGA [V16G], the protein stability index was 3.97.
FHLGLEDILMEEEEGMVGGLSGGA [V16M] showed a protein stability index of 3.58.
